According to patent publication US20080119430:

B1: BNO69 (endogenous protein in HUVECs, knocked down by adenoviral antisense BNO69R) (protein)
chain: MPEDRNSGGCPAGALASTPFIPKTTYRRIKRCFSFRKGIFGQKLEDTVRYEKRYGNRLAPMLVEQCVDFIRQRGLKEEGLFRLPGQANLVKELQDAFDCGEKPSFDSNTDVHTVASLLKLYLRELPEPVIPYAKYEDFLSCAKLLSKEEEAGVKELAKQVKSLPVVNYNLLKYICRFLDEVQSYSGVNKMSVQNLATVFGPNILRPKVEDPLTIMEGTVVVQQLMSVMISKHDCLFPKDAELQSKPQDGVSNNNEIQKKATMGLLQNKENNNTKDSPSRQCSWDKSESPQRSSMNNGSPTALSGSKTNSPKNSVHKLDVSRSPPLMVKKNPAFNKGSGIVTNGSFSSSNAEGLEKTQTTPNGSLQARRSSSLKVSGTKMGTHSVQNGTVRMGILNSDTLGNPTNVRNMSWLPNGYVTLRDNKQKEQAGELGQHNRLSTYDNVHQQFSMMNLDDKQSIDSATWSTSSCEISLPENSNSCRSSTTTCPEQDFFGGNFEDPVLDGPPQDDLSHPRDYESKSDHRSVGGRSSRATSSSDNSETFVGNSSSNHSALHSLVSSLKQEMTKQKIEYESRIKSLEQRNLTLETEMMSLHDELDQERKKFTMIEIKMRNAERAKEDAEKRNDMLQKEMEQFFSTFGELTVEPRRTERGNTIWIQ
B2: BNO69 mutant (R82A) (protein)
chain: MPEDRNSGGCPAGALASTPFIPKTTYRRIKRCFSFRKGIFGQKLEDTVRYEKRYGNRLAPMLVEQCVDFIRQRGLKEEGLFALPGQANLVKELQDAFDCGEKPSFDSNTDVHTVASLLKLYLRELPEPVIPYAKYEDFLSCAKLLSKEEEAGVKELAKQVKSLPVVNYNLLKYICRFLDEVQSYSGVNKMSVQNLATVFGPNILRPKVEDPLTIMEGTVVVQQLMSVMISKHDCLFPKDAELQSKPQDGVSNNNEIQKKATMGLLQNKENNNTKDSPSRQCSWDKSESPQRSSMNNGSPTALSGSKTNSPKNSVHKLDVSRSPPLMVKKNPAFNKGSGIVTNGSFSSSNAEGLEKTQTTPNGSLQARRSSSLKVSGTKMGTHSVQNGTVRMGILNSDTLGNPTNVRNMSWLPNGYVTLRDNKQKEQAGELGQHNRLSTYDNVHQQFSMMNLDDKQSIDSATWSTSSCEISLPENSNSCRSSTTTCPEQDFFGGNFEDPVLDGPPQDDLSHPRDYESKSDHRSVGGRSSRATSSSDNSETFVGNSSSNHSALHSLVSSLKQEMTKQKIEYESRIKSLEQRNLTLETEMMSLHDELDQERKKFTMIEIKMRNAERAKEDAEKRNDMLQKEMEQFFSTFGELTVEPRRTERGNTIWIQ

Molecular target: Rho (active Rho-GTP, endogenous in HUVECs)

Row | Protein | fold increase in Rho activity (active Rho-GTP) in HUVECs after BNO69 knockdown with BNO69R, compared to empty vector | fold increase in Rho activity in HUVECs expressing the R82A mutant, compared to empty vector
1 | B1 | 3.1±0.5 fold increase in Rho activity with BNO69R | –
2 | B2 | – | 2.6±0.7 fold increase (n=4 experiments) in Rho activity
